Reference: patent publication US20030204066A1 (published 2003)

T1: human lymphotoxin (TNFβ) (human, UniProt P01374 35-205, limits assumed)
T1 sequence (looked up): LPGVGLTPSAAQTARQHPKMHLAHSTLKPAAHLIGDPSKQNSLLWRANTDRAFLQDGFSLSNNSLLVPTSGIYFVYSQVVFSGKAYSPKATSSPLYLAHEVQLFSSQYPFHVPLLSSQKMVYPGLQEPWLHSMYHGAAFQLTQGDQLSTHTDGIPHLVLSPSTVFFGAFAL


Assays:
[1] = biological target: T1, human lymphotoxin (TNFβ); experiment: cell-based or functional assay
[2] = biological target: human tumor necrosis factor-α (TNFα) (human, UniProt P01375 77-233); experiment: cell-based or functional assay
Sequence of human tumor necrosis factor-α (TNFα) (P01375 77-233): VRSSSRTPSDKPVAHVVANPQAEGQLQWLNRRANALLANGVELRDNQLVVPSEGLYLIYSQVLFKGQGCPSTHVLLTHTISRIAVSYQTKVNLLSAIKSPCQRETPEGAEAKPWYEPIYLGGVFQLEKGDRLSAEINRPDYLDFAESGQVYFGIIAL

Binder | amount needed for the same inhibition of TNFβ cytotoxicity, against p75P-sf2 [1] | IC50 = concentration of fusion protein required to inhibit 2 ng/ml (39.2 pM) TNFα by 50% (WEHI 164 cytotoxicity) [2] [pM]
p75-sf2 (complete p75 extracellular domain / IgG1 heavy chain fusion) (Fc fusion) chain 1: QLPAQVAFTPYAPEPGSTCRLREYYDQTAQMCCSKCSPGQHAKVFCTKTSDTVCDSCEDSTYTQLWNWVPECLSCGSRCSSDQVETQACTREQNRICTCRPGWYCALSKQEGCRLCAPLRKCRPGFGVARPGTETSDVVCKPCAPGTFSNTTSSTDICRPHQICNVVAIPGNASMDAVCTSTSPTRSMAPGAVHLPQPVSTRSQHTQPTPEPSTAPSTSFLLPMGPSPPAEGSTGDGTLVTVSS chain 2: GTKLEIK | 3 fold (against p75P-sf2) | 
p75P-sf2 (p75 amino acids 1-182 / IgG1 heavy chain fusion) (Fc fusion) chain 1: QLPAQVAFTPYAPEPGSTCRLREYYDQTAQMCCSKCSPGQHAKVFCTKTSDTVCDSCEDSTYTQLWNWVPECLSCGSRCSSDQVETQACTREQNRICTCRPGWYCALSKQEGCRLCAPLRKCRPGFGVARPGTETSDVVCKPCAPGTFSNTTSSTDICRPHQICNVVAIPGNASMDAVCTSTSGTLVTVSS chain 2: GTKLEIK |  | 70
p55-sf2 (p55 TNF receptor / IgG1 heavy chain single fusion with truncated light chain JCK) (Fc fusion) chain 1: QVCPQGKYIHPQNNSICCTKCHKGTYLYNDCPGPGQDTDCRECESGSFTASENHLRHCLSCSKCRKEMGQVEISSCTVDRDTVCGCRKNQYRHYWSENLFQCFNCSLCLNGTVHLSCQEKQNTVCTCHAGFFLRENECVSCSNCKKSLECTKLCLPQIGTLVTVSS chain 2: GTKLEIK |  | 70
p55-df2 (double fusion: p55 on both the IgG1 heavy chain and the kappa light chain) (Fc fusion) chain 1: QVCPQGKYIHPQNNSICCTKCHKGTYLYNDCPGPGQDTDCRECESGSFTASENHLRHCLSCSKCRKEMGQVEISSCTVDRDTVCGCRKNQYRHYWSENLFQCFNCSLCLNGTVHLSCQEKQNTVCTCHAGFFLRENECVSCSNCKKSLECTKLCLPQIGTLVTVSS chain 2: DSVCPQGKYIHPQNNSICCTKCHKGTYLYNDCPGPGQDTDCRECESGSFTASENHLRHCLSCSKCRKEMGQVEISSCTVDRDTVCGCRKNQYRHYWSENLFQCFNCSLCLNGTVHLSCQEKQNTVCTCHAGFFLRENECVSCSNCKKSLECTKLCLPQIGTKLEIK |  | 55
